Assay results published in patent publication US20200399391A1 (Sanofi, published 2020).

Columns and labels:
[1] = biological target: T1, FcγRIIa extracellular domain with H131, histag (Biorbyt, batch ORB138408) (human, UniProt P12318 34-217); assay: AlphaScreen competition, against mAb 1
T1 construct: Bought protein; also called FcγRIIa H131; not shown: histag
T1 sequence: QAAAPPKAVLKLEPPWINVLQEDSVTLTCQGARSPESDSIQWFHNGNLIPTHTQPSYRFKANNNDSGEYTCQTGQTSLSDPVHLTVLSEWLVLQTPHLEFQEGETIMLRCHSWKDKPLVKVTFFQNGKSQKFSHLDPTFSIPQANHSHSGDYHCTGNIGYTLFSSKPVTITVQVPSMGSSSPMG

[2] = biological target: T2, FcγRIIb expressed on HEK cells (UniProt P31994 43-310, limits assumed); assay: flow cytometry on HEK293T cells expressing the receptor; the text calls it fold lower affinity
T2 construct: whole, on cells; also called HEK293T-FcγRIIb
T2 sequence (looked up): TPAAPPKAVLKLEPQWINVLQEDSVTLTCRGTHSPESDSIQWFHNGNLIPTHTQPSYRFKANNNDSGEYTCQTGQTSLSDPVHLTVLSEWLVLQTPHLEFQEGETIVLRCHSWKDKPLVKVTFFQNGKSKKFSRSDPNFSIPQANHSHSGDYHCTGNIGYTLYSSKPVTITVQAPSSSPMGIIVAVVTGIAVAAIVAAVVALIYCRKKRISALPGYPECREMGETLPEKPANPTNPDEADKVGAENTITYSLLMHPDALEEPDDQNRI

[3] = biological target: T3, FcγRIIIa 158V expressed on cells (human, UniProt P08637 17-254); assay: cell-based or functional assay
[4] = biological target: T4, FcγRIIa 131H expressed on HEK cells (human, UniProt P12318 34-317); assay: flow cytometry on HEK293T cells expressing the receptor
T4 sequence: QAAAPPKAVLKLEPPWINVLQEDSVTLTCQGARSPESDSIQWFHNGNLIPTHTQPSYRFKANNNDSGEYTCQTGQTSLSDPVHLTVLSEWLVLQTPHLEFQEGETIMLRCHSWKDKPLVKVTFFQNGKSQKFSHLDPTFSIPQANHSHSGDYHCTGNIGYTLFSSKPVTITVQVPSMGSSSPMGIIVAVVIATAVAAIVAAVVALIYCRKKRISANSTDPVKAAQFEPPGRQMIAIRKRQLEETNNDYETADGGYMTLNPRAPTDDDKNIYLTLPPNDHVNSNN

[5] = biological target: T3, FcγRIIIa 158V expressed on cells; assay: as above
[6] = biological target: T3, FcγRIIIa 158V expressed on cells; assay: cell-based or functional assay; remark: listed apart in the source
[7] = biological target: T5, FcγRIIIa (CD16a) extracellular domain with V158, C-terminal histag (human, UniProt P08637 17-208); assay: SPR (BIAcore 2000), FcγRIIIa-histag captured on anti-His IgG, mAb 8-256 nM, two-state fit
T5 construct: also called FcγRIIIa 158V; FcγRIIIa-histag; not shown: C-terminal histag

[8] = biological target: T6, FcγRI expressed on HEK cells (UniProt P12314 16-374, limits assumed); assay: flow cytometry on HEK293T cells expressing the receptor
T6 construct: whole, on cells; also called HEK293T-FcγRI

[9] = biological target: T4, FcγRIIa 131H expressed on HEK cells; assay: flow cytometry on HEK293T cells expressing the receptor, FITC anti-human IgG; mean Kd
[10] = biological target: T5, FcγRIIIa (CD16a) extracellular domain …; assay: SPR, another experiment
[11] = biological target: T3, FcγRIIIa 158V expressed on cells; assay: cell-based or functional assay; remark: listed apart in the source
[12] = biological target: T3, FcγRIIIa 158V expressed on cells; assay: flow cytometry on HEK293T cells expressing the receptor, FITC anti-human IgG; mean apparent Kd
[13] = biological target: T6, FcγRI expressed on HEK cells; assay: flow cytometry on HEK293T cells expressing the receptor, FITC anti-human IgG; mean Kd
[14] = biological target: T2, FcγRIIb expressed on HEK cells; assay: as above
[15] = biological target: T5, FcγRIIIa (CD16a) extracellular domain …; assay: SPR, against mAb 1
[16] = biological target: T1, FcγRIIa extracellular domain with H131, …; assay: AlphaScreen competition (relative IC50): untagged mAb displaces biotinylated anti-CD38 native IgG1 from FcγRIIa-histag

T5 sequence (P08637 17-208 F176V): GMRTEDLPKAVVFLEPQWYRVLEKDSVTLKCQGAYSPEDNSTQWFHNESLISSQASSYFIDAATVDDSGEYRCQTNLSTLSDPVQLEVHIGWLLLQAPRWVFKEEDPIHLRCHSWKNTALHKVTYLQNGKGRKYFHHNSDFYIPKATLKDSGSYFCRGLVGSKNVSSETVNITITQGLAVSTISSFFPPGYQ
T3 sequence (P08637 17-254 F176V limits assumed): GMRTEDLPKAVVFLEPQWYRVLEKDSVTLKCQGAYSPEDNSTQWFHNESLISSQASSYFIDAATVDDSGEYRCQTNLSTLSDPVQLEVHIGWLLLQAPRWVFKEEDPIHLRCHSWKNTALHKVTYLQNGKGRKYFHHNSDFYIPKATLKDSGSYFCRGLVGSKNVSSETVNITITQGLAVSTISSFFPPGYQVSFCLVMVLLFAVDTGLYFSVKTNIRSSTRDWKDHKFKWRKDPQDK
T6 sequence (P12314 16-374 limits assumed): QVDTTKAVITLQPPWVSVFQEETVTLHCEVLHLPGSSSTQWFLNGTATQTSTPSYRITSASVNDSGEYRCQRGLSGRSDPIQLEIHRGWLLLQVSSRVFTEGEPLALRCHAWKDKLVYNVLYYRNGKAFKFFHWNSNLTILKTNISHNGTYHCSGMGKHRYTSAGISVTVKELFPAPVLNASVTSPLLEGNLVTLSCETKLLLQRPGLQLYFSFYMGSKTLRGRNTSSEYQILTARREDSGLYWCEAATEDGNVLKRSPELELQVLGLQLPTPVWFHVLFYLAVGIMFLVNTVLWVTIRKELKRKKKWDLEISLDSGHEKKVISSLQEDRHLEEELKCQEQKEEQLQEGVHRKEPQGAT

fold higher affinity compared to mAb 1 [1]: > 18 fold | difference in affinity versus mAb 1 [2]: 3.3 fold | ADCC of KMS-12BM cells, EC50 (calcein release) [3]: 0.6 ng/mL | difference in affinity versus mAb 1 [4]: 5.3 fold | Fold difference in affinity versus mAb 1 [5]: 5.2 fold | ADCC of RPMI-8226 cells, EC50 (calcein release) [6]: 0.09 ng/mL | Kd [7]: 50 nM | difference in affinity versus mAb 1 [8]: 1.6 fold | Kd [9]: 222 nM | Kd [10]: 75 nM | ADCC of MOLP-8 cells, EC50 (calcein release) [11]: 0.14 ng/mL | Kd [12]: 32 nM | Kd [13]: 14.7 nM | Kd [14]: 222 nM | fold higher affinity than mAb 1 [15]: 9 fold | IC50 [16]: 15 nM
B1: mAb 3 (antibody, human IgG1, kappa)
heavy: QVQLVQSGAEVAKPGTSVKLSCKASGYTFTDYWMQWVKQRPGQGLEWIGTIYPGDGDTGYAQKFQGKATLTADKSSKTVYMHLSSLASEDSAVYYCARGDYYGSNSLDYWGQGTSVTVSSASTKGPSVFPLAPSSKSTSGGTAALGCLVKDYFPEPVTVSWNSGALTSGVHTFPAVLQSSGLYSLSSVVTVPSSSLGTQTYICNVNHKPSNTKVDKKVEPKSCDKTHTCPPCPAPELLAGPDVFLFPPKPKDTLMISRTPEVTCVVVDVSHEDPEVKFNWYVDGVEVHNAKTKPREEQYNSTYRVVSVLTVLHQDWLNGKEYKCKVSNKALPAPEEKTISKAKGQPREPQVYTLPPSRDELTKNQVSLTCLVKGFYPSDIAVEWESNGQPENNYKTTPPVLDSDGSFFLYSKLTVDKSRWQQGNVFSCSVMHEALHNHYTQKSLSLSPG
light: DIVMTQSHLSMSTSLGDPVSITCKASQDVSTVVAWYQQKPGQSPRRLIYSASYRYIGVPDRFTGSGAGTDFTFTISSVQAEDLAVYYCQQHYSPPYTFGGGTKLEIKRTVAAPSVFIFPPSDEQLKSGTASVVCLLNNFYPREAKVQWKVDNALQSGNSQESVTEQDSKDSTYSLSSTLTLSKADYEKHKVYACEVTHQGLSSPVTKSFNRGEC
notes: also called HEAVY CHAIN 3 / LIGHT CHAIN 1
